Test results: patent US20260225001A1, “COMPOSITIONS AND METHODS FOR PURIFYING BIOLOGICAL FLUIDS” (North Carolina State University, priority 2023, published 2026)

Key:
[1] = tested on: Pichia pastoris HCPs; assay: Contribution of individual PichiaGuard peptides to HCP binding (flow-through, BCA, proteomics, IgG incubation); details: for number of HCPs bound (HCP binding density): FIG. 13, proteomics; for coverage of HCPs: FIG. 13, by theoretical isoelectric point; for number of HCP species bound compared with PichiaGuard: FIGS. 14A-14H
Text: Within HCP binding, it was observed that sequences 5 through 8 display the highest capacity for HCPs, followed by 4, 3 and 1. The same sequences in order also show low to high IgG binding potential, generating a qualitative understanding of binding capacity (Y-axis) and binding selectivity (HCP/IgG).
The color spectrum diverging from blue to red indicates an increasing number of HCPs with specific molecular weight (Y-axis) and theoretical isoelectric points (X-axis) captured by each peptide.
FIGS. 14A-14H compare the total number of identified HCPs bound by individual peptides with that of the PichiaGuard ensemble.
Analysis of PichiaGuard Peptide Contributions to HCP Binding: Contributions of individual peptides comprising PichiaGuard were discerned in terms of their binding to Pichia pastoris HCPs “by-sequence”. These studies comprised of the flow-through purification of null Pichia culture fluids (no recombinant protein), subsequently purified using chromatographic columns packed with individual peptides. The fluids were purified at a 1-minute residence time and flow-through fractions were collected across time for the identification of bound and unbound HCPs (see chromatograms in FIG. 11A). These fractions were analyzed using total protein quantification assay (BCA) and compared with that of the load sample to compute HCP log-reduction value for each individual sequence (FIG. 11B, left). Simultaneously, 25 μL of each peptide was incubated with a range of IgG concentrations (0.1-30 mg/mL resin) overnight to understand their binding propensities to the competitor molecules under non-competitive conditions. Protein content in the supernatant was estimated and compared to the initial concentrations to observe IgG binding (FIG. 11B, right). All flow-through fractions were analyzed through the proteomics workflow (as described further herein) to identify unbound HCPs and overall, correlate peptide and HCP properties. Briefly, label free quantification was performed to identify HCPs within each flow-through fraction and compared to the feed sample used within the experiment. The data was first grouped as a function of time for each peptide and data filters were applied based on the abundance ratio to label bound and unbound HCPs, at different confidence levels based on the number of fractions they were identified in. Concurrently, the “Peptides” package within RStudio was utilized to calculate sequence-based properties of each HCP such as polarity, H-bonding, hydrophobicity and charge.

[2] = molecular target: K. phaffii host cell proteins (HCPs); assay: flow-through chromatography, acetate buffer, RT 1 min, up to 40 CVs
[3] = molecular target: K. phaffii host cell proteins (HCPs); assay: flow-through chromatography, acetate buffer, RT 1 min, up to 10 CVs
[4] = molecular target: K. phaffii host cell proteins (HCPs); assay: flow-through chromatography, DOE study, phosphate buffer
[5] = molecular target: K. phaffii host cell proteins (HCPs); assay: flow-through chromatography, DOE study, acetate buffer
[6] = molecular target: K. phaffii host cell proteins (HCPs); assay: flow-through chromatography of ScFv13R4 harvest, 20 mM sodium acetate pH 5.7, RT 1 min; protein loading 6.30 g/L resin
[7] = molecular target: K. phaffii host cell proteins (HCPs); assay: flow-through chromatography of mAb harvest, acetate buffer, load up to 15 mg/mL
[8] = molecular target: K. phaffii host cell proteins (HCPs); assay: flow-through chromatography of ScFv13R4 harvest, 20 mM sodium acetate pH 5.7, RT 1 min; protein loading 5.10 g/L resin
[9] = molecular target: K. phaffii host cell proteins (HCPs); assay: flow-through chromatography of ScFv13R4 harvest, 20 mM sodium acetate pH 5.7, RT 1 min; protein loading 7.50 g/L resin
[10] = molecular target: K. phaffii host cell proteins (HCPs); assay: flow-through chromatography of ScFv13R4 harvest, 20 mM sodium acetate pH 5.7, RT 1 min; protein loading 9.30 g/L resin
[11] = molecular target: K. phaffii host cell proteins (HCPs); assay: flow-through chromatography, RT 1 min
[12] = molecular target: K. phaffii host cell proteins (HCPs); assay: flow-through chromatography, DOE study
[13] = molecular target: K. phaffii host cell proteins (HCPs); assay: static binding, Langmuir isotherm fit, HCPs treated as a single species; acetate buffer pH 5.7
[14] = molecular target: K. phaffii host cell proteins (HCPs); assay: static binding, Langmuir isotherm fit; phosphate buffer pH 7.1-7.2
[15] = molecular target: K. phaffii host cell proteins (HCPs); assay: flow-through chromatography of ScFv13R4 harvest, 20 mM sodium acetate pH 5.7, RT 1 min; protein loading 14.40 g/L resin
[16] = molecular target: K. phaffii host cell proteins (HCPs); assay: flow-through chromatography, acetate buffer, RT 1 min, up to 100 CVs
[17] = molecular target: K. phaffii host cell proteins (HCPs); assay: flow-through chromatography of ScFv13R4 harvest, nanoLC-MS/MS
[18] = molecular target: K. phaffii host cell proteins (HCPs); assay: flow-through chromatography, acetate buffer, RT 1 min, up to 20 CVs
[19] = molecular target: K. phaffii host cell proteins (HCPs); assay: flow-through chromatography of ScFv13R4 harvest, 20 mM sodium acetate pH 5.7, RT 1 min; protein loading 2.10 g/L resin
[20] = molecular target: K. phaffii host cell proteins (HCPs); assay: static binding, Langmuir isotherm fit, HCPs treated as a single species; phosphate buffer pH 7.1-7.2; pH 7.15
[21] = molecular target: K. phaffii host cell proteins (HCPs); assay: static binding, Langmuir isotherm fit; acetate buffer pH 5.7
[22] = molecular target: K. phaffii host cell proteins (HCPs); assay: flow-through chromatography of ScFv13R4 harvest, 20 mM sodium acetate pH 5.7, RT 1 min; protein loading 3.90 g/L resin
[23] = molecular target: K. phaffii host cell proteins (HCPs); assay: flow-through chromatography, around the 30th CV
[24] = molecular target: K. phaffii host cell proteins (HCPs); assay: flow-through purification of scFv perfusate, Pichia pastoris HCP ELISA; 150 CV load
[25] = molecular target: K. phaffii host cell proteins (HCPs); assay: flow-through affinity chromatography
[26] = molecular target: K. phaffii host cell proteins (HCPs); assay: flow-through chromatography, 30th CV mark

In the case of RYWV [Peptide 8], the “number of HCPs bound (HCP binding density)” value (shortened to “number of HCPs bound”) [1] is reported as “least number of HCPs”.

With QEKK [Peptide 5] the “coverage of HCPs” value [1] was “broad coverage of HCPs with varying pI”.

For VWHH [Peptide 7], the “coverage of HCPs” value [1] was “broad coverage of HCPs with varying pI” and the “number of HCP species bound compared with PichiaGuard” value [1] was “binding most species”.

In the case of RYWK [Peptide 2], the “selectivity (HCP vs IgG binding)” value ([1]; FIG. 14I, non-competitive conditions) is reported as “poor selectivity”.

With EWAK [Peptide 4] the “coverage of HCPs” value [1] was “broad coverage of HCPs with varying pI”, the “number of HCPs bound” value [1] was “High HCP binding densities” and the “number of HCP species bound compared with PichiaGuard” value [1] was “binding most species”.

In the case of YHKH [Peptide 1], the “coverage of HCPs” value [1] is reported as “broad coverage of HCPs with varying pI”, the “number of HCPs bound” value [1] is reported as “High HCP binding densities” and the “number of HCP species bound compared with PichiaGuard” value [1] is reported as “binding most species”.

WYKK [Peptide 6] was tested, and the “number of HCP species bound compared with PichiaGuard” value [1] was “binding most species”.

CHO LigaGuard™ resin was tested, and the cumulative HCP LRV [2] was 0.45 to 0.55 LRV and the cumulative HCP LRV [3] was 1 to 1.5 LRV.

B1: PichiaGuard-TP50F resin (peptide)
peptide 1: YHKH
peptide 2: RYWK
peptide 3: RWYQ
peptide 4: EWAK
peptide 5: QEKK
peptide 6: WYKK
peptide 7: VWHH
peptide 8: RYWV
modifications: bound to aminated Toyopearl HW-50F resin
B1 was tested, and the HCP LRV [4] was 0.8 to 1 LRV and the HCP LRV [5] was 0.7 to 0.9 LRV.

B2: PichiaGuard-TP650M resin (peptide)
peptide 1: YHKH
peptide 2: RYWK
peptide 3: RWYQ
peptide 4: EWAK
peptide 5: QEKK
peptide 6: WYKK
peptide 7: VWHH
peptide 8: RYWV
modifications: bound to Toyopearl AF-Amino-650M resin
For B2, the cumulative HCP LRV [6] was 1.55 LRV, the overall HCP LRV [7] was 1.15 LRV and the cumulative HCP LRV [8] was 1.92 LRV. The cumulative HCP LRV [9] was 1.34 LRV, the cumulative HCP LRV [10] was 1.14 LRV and the fold change of HCP clearance activity, phosphate buffer against acetate buffer [11] was 10 fold lower. It also gave an HCP LRV [12] of 3 LRV, a Kd [13] of 17.5 µM and a Qmax (maximum binding capacity) (mg HCP per mL resin) [14] of 18.3. The cumulative HCP LRV [15] was 1.01 LRV, the cumulative HCP LRV [16] was 1.3 LRV and the % of HCPs completely removed [17] was > 84%. It also gave a % of HCPs partially cleared [17] of 15%, a cumulative HCP LRV [18] of 1.5 to 2 LRV and a cumulative HCP LRV [19] of 3 LRV. It also gave a Kd [20] of 30 µM, a Qmax (maximum binding capacity) (mg HCP per mL resin) [21] of 25.4 and a cumulative HCP LRV [22] of 2.55 LRV. The cumulative HCP LRV [3] was > 2 LRV.

B3: PichiaGuard (peptide)
peptide 1: YHKH
peptide 2: RYWK
peptide 3: RWYQ
peptide 4: EWAK
peptide 5: QEKK
peptide 6: WYKK
peptide 7: VWHH
peptide 8: RYWV
modifications: bound to a chromatographic resin; which Toyopearl base is not said at these places
For B3, the cumulative LRV at plateau [23] was 1 LRV, the fractional LRV [23] was < 0.5 LRV and the HCP removal (logs) [24] was 1.7 logs. For the same molecule, the % reduction of HCPs and hcDNA [25] was < 99%, the load at saturation as % of Qmax [26] was 75 % of Qmax and the load ratio at saturation (g of HCPs per L of resin) [26] was 18.
